Reference: US20040258682A1
Each block holds one molecule with its values, some of them ahead of it.

What was measured:
[1] = target: CD22, the LL2 antigen on the surface of Raji B-lymphoma cells (UniProt P20273); assay: Raji cell binding assay
[2] = target: CD22, the LL2 antigen on the surface of Raji B-lymphoma cells (UniProt P20273); assay: cell-based or functional assay
[3] = target: CD22, the LL2 antigen on the surface of Raji B-lymphoma cells (UniProt P20273); assay: cell surface binding assay, calculated from ID50 values
[4] = target: WN, LL2 anti-idiotype antibody; assay: WN competitive blocking assay, F(ab′)2 competing with mLL2; design: unit not given beside the values
[5] = target: WN, LL2 anti-idiotype antibody; assay: WN competitive blocking assay, from ID50 against unmodified control F(ab′)2

immunoreactivity (% of control values) [1]: 80%
Molecule: DOX-LL2 (doxorubicin-dextran-LL2 F(ab′)2 conjugate of Example 9)

rate of antibody internalization (Ke) by Raji cells [2]: 0.122
Molecule: cLL2Q (chimeric LL2 with the NVT to QVT mutation in VK FR1) (antibody)

ID50 [4]: 0.384 | Immunoreactivity, % of hLL2 [5]: 100%
B1: hLL2 F(ab′)2 fragment (protein, INN chains, looked up)
VH: QVQLVQSGAEVKKPGSSVKVSCKASGYTFTSYWLHWVRQAPGQGLEWIGYINPRNDYTEYNQNFKDKATITADESTNTAYMELSSLRSEDTAFYFCARRDITTFYWGQGTTVTVSS
VL: DIQLTQSPSSLSASVGDRVTMSCKSSQSVLYSANHKNYLAWYQQKPGKAPKLLIYWASTRESGVPSRFSGSGSGTDFTFTISSLQPEDIATYYCHQYLSSWTFGGGTKLEIK
modifications: F(ab')2

Continued, molecule first:

Molecule: mLL2 F(ab′)2 fragment
Immunoreactivity (%), cell binding [3]: 100%

Molecule: mLL2 F(ab′)2 fragment conjugated with dextran-DOX at the VK-appended carbohydrate
Immunoreactivity (%), cell binding [3]: 41.9%

Molecule: murine LL2 monoclonal antibody
rate of antibody internalization (Ke) by Raji cells [2]: 0.107
